One may read the Ki as the dissociation constant of the complex between target and ligand, obtained from inhibition or displacement. Lower therefore signals a stronger hold on the target.

Where two headings read alike, the source gives them in different places.

The target in assay [1] is T1, N-terminal His-tagged LsrK (E. coli, UniProt P77432 1-530).
T1 sequence (looked up): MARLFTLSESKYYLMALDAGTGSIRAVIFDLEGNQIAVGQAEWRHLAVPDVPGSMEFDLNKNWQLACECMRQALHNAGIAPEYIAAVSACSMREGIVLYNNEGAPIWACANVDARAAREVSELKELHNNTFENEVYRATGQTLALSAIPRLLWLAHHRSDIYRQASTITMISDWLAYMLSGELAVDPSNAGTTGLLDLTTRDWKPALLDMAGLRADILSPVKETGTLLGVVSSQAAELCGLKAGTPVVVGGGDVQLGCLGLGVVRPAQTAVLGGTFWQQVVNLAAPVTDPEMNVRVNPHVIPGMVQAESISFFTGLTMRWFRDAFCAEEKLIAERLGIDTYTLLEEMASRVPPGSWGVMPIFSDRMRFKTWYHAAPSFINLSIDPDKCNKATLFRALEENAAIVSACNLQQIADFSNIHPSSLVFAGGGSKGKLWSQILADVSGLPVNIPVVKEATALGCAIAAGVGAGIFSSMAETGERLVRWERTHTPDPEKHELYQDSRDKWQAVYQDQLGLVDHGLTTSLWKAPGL
Put plainly: enzyme inhibition kinetics.

The target of assay [2] is T1, N-terminal His-tagged LsrK. Kind of assay: enzyme inhibition kinetics. This is another data set of the same source.

B1: C-terminal six-His-tagged HPr H15E (natural protein)
chain: not shown
For B1, in assay [1], the affinity corresponds to a Ki of 1200 ± 200 nM and the “fold lower inhibition activity than WT HPr” value was around 5 fold.

B2: phosphorylated HPr (natural protein)
chain: not shown
modifications: phosphate group at the H15-ND1 atom (phosphohistidine 15); ^15N-labelled
For the molecule B2, the Ki in assay [2] came to 8400 ± 500 nM.

B3: native HPr protein (expressed alone, intact form) (natural protein)
chain: not shown
On to B3, for which the Ki in assay [2] turned out to be 320 ± 70 nM.

(Values after article PMC5983913 (Science Advances, 2018).)
